Data: patent US20240409960A1, “METHOD FOR CONTROLLING PROTEIN FUNCTION” (The University of Tokyo, priority 2021, published 2024)

System: rox sites (Floxed (rox)-STOP Fluc reporter) in HEK293 cells
Test: luciferase assay of Dre-rox DNA recombination in HEK293 cells
Assay type: cell-based, human
Details: 5 ng plasmid, TMP 10 nM or 500 nM or DMSO, 24 or 48 hours
Experimental: For constructing the luciferase reporters detecting for the activities of Flp-FRT recombinase, VCre-Vlox recombinase and Dre-rox recombinase, the FRT site ([…]: SEQ ID No: 37), the Vlox site ([…]: SEQ ID No: 38), the rox site ([…]: SEQ ID No: 39), were inserted into HindIII and KpnI sites and ClaI and EcoRI sites in the pcDNA3.1 (+) vector of the luciferase reporter (of loxP-stop-loxP-Fluc).
For luciferase assay, HEK 293 cells were plated at 25,000 cells per well on a 96-well flat white microplate (Thermo Fisher Scientific), and were then cultured for 24 hours at 37° C. in 5% CO2. The cells were transfected with cDNAs encoding destabilized Cre along with the luciferase reporter (loxP-stop-loxP Fluc), using X-tremeGENE9 reagent (Merck Millipore) at 37° C. The total amount of DNA was 50 ng per well. Twenty-four hours after the transfection, TMP or DMSO was added into the cells, and the cells were further cultured for 24 hours or 48 hours. Just before the luciferase assay, the medium was replaced with Hanks' balanced salt solution (HBSS) (Thermo Fisher Scientific) containing 0.2 mM D-luciferin potassium salt. Bioluminescence measurement was performed for 1 second per well at room temperature using a Centro XS^3 LB 960 plate-reading luminometer (Berthold Technologies).

B1: SPEED-Dre: split Dre (a.a. 2-150 and 151-342), single DD on the N-terminal and C-terminal sides; SEQ ID No: 24 (protein)
chain: MVSKYPYDVPDYARSGGSGGMISLIAALAVDYVIGMENAMPWNLPADLAWFKRNTLNKPVIMGRHTWESIGRPLPGRKNIILSSQPSTDDRVTWVKSVDEAIAACGDVPEIMVIGGGRVIEQFLPKAQKLYLTHIDAEVEGDTHFPDYEPDDWESVFSEFHDADAQNSHSYCFEILERRGGSGGSGGKLVPKKKRKVGGSELIISGSSGGFLRNIGKEYQEAAENFMRFMNDQGAYAPNTLRDLRLVFHSWARWCHARQLAWFPISPEMAREYFLQLHDADLASTTIDKHYAMLNMLLSHCGLPPLSDDKSVSLAMRRIRREAATEKGERTGQAIPLRWDDLKLLDVLLGSGSGATNFSLLKQAGDVEENPGPLESRSERLVDLRNRAFLFVAYNTLMRMSEISRIRVGDLDQTGDTVTLHISHTKTITTAAGLDKVLSRRTTAVLNDWLDVSGLREHPDAVLFPPIHRSNKARITTTPLTAPAMEKIFSDAWVLLNKRDATPNKGRYRTWTGHSARVGAAIDMAEKQVSMVEIMQEGTWKKPETLMRYLRRGGVSVGANSRLMDSGGSGGSGGMISLIAALAVDYVIGMENAMPWNLPADLAWFKRNTLNKPVIMGRHTWESIGRPLPGRKNIILSSQPSTDDRVTWVKSVDEAIAACGDVPEIMVIGGGRVIEQFLPKAQKLYLTHIDAEVEGDTHFPDYEPDDWESVFSEFHDADAQNSHSYCFEILERR
modifications: MISC_FEATURE - HAtag; DOMAIN 21..179 Degradation Domain; SIGNAL 190..197 Nuclear Localization Signal; MISC_FEATURE - N-terminal side of Dre; MISC_FEATURE - P2A; MISC_FEATURE - C-terminal side of Dre; DOMAIN 575..733 Degradation Domain; Bacteriophage D6
background and TMP-dependent DNA recombination activity: results similar to those of SPEED-Cre
